{
  "source": "patent US20200325490A1",
  "about": "(AARHUS UNIVERSITET, published 2020)",
  "target": "the molecule itself",
  "assay": "Western blot with anti-His6 antibody: band of about 92 kDa against a theoretical mass of 47 kDa",
  "data": [
    {"protein": "HvNEP-1 (Hordeum vulgare nepenthesin-1-type aspartic endoprotease), ΔHvNEP-1 with C-terminal His6 tag, expressed in Pichia pastoris KM71H (enzyme, also called HvNEP-1 protease; truncated HvNEP-1) DADTPKVAMASSGAGSSFRLAAHHDHALSRSDDGFLHVQSRLDNLLPSEANVTTLRPPVASPLDMAFSVVVGLGSGKGRHDYNLKLDASGSLTWVQCKPCNPKQPQRGPLFDPKASSTFQQVAGTSQICHPPYPMEPAGQQCAFHLSGMGGMSVHGYVAMENLTMGPEAMKEFVFGCSHSTGHFNSHGTFAGVAAMGKMPTSLVMQVAARGQTRFSYCLFSGGASRHGFLRFGADVPSRSGLRTTKILPALDAHESQYYVSLVGISLDAKRLTGVRPEMFARQRGGEGGCVVDPGTPLTVLVREAYRVVEDAVWSDLRRNKAERVQREGYGLCVRKTAEIKRHLQSLSLHFAEETARLVVKPEQLFVAVESRLHGAALCLAMRPGERTVIGALQQVDTRFVYDLKDAKLSFASEPCSQDTAGVDHHHHHH", "values": [
      {"measurement": "binding result", "result": "binds"}
    ]}
  ]
}
